Measured values from PMC6433694.

Key:
[1] = western blot of exogenous eIF4E, Huh7; conditions: glycan lost; control: wild-type eIF4E
[2] = cycloheximide chase, western blot, Huh7; conditions: glycan lost; control: wild-type eIF4E
[3] = Flag IP, anti-ubiquitin blot, MG132-treated Huh7; conditions: glycan lost; control: wild-type eIF4E
[4] = western blot of eIF4E, Huh7 and PLC/PRF/5; conditions: glycan lost; control: control shRNA

Substance	expression_or_secretion [1]	degradation_or_half_life [2]	other: ubiquitination [3]	expression_or_secretion [4]
eukaryotic initiation factor 4E (eIF4E): T168A	decreases	decreases	increases	–
eukaryotic initiation factor 4E (eIF4E): T168,177A	decreases	decreases	increases	–
eukaryotic initiation factor 4E (eIF4E): T177A	decreases	decreases	increases	–
eukaryotic initiation factor 4E (eIF4E): OGT shRNA1 / OGT shRNA2	–	–	–	decreases
